Test results: patent US20190152966A1 (INSTITUTE OF CANCER RESEARCH ROYAL CANCER HOSPITAL, published 2019)

Biological target: T1, Epidermal Growth Factor Receptor (EGFR) (human, UniProt P00533 25-1210)
T1 construct: whole, on cells; also called HER1; EGF receptor
Assay: heading of the results section on rhMATN2 added to MDA-MB-231 cells

B1: recombinant human MATN2 (rhMATN2) (ligand, UniProt O00339 24-956, looked up)
chain: RERSRGRSISRGRHARTHPQTALLESSCENKRADLVFIIDSSRSVNTHDYAKVKEFIVDILQFLDIGPDVTRVGLLQYGSTVKNEFSLKTFKRKSEVERAVKRMRHLSTGTMTGLAIQYALNIAFSEAEGARPLRENVPRVIMIVTDGRPQDSVAEVAAKARDTGILIFAIGVGQVDFNTLKSIGSEPHEDHVFLVANFSQIETLTSVFQKKLCTAHMCSTLEHNCAHFCINIPGSYVCRCKQGYILNSDQTTCRIQDLCAMEDHNCEQLCVNVPGSFVCQCYSGYALAEDGKRCVAVDYCASENHGCEHECVNADGSYLCQCHEGFALNPDKKTCTKIDYCASSNHGCQHECVNTDDSYSCHCLKGFTLNPDKKTCRRINYCALNKPGCEHECVNMEESYYCRCHRGYTLDPNGKTCSRVDHCAQQDHGCEQLCLNTEDSFVCQCSEGFLINEDLKTCSRVDYCLLSDHGCEYSCVNMDRSFACQCPEGHVLRSDGKTCAKLDSCALGDHGCEHSCVSSEDSFVCQCFEGYILREDGKTCRRKDVCQAIDHGCEHICVNSDDSYTCECLEGFRLAEDGKRCRRKDVCKSTHHGCEHICVNNGNSYICKCSEGFVLAEDGRRCKKCTEGPIDLVFVIDGSKSLGEENFEVVKQFVTGIIDSLTISPKAARVGLLQYSTQVHTEFTLRNFNSAKDMKKAVAHMKYMGKGSMTGLALKHMFERSFTQGEGARPLSTRVPRAAIVFTDGRAQDDVSEWASKAKANGITMYAVGVGKAIEEELQEIASEPTNKHLFYAEDFSTMDEISEKLKKGICEALEDSDGRQDSPAGELPKTVQQPTESEPVTINIQDLLSCSNFAVQHRYLFEEDNLLRSTQKLSHSTKPSGSPLEEKHDQCKCENLIMFQNLANEEVRKLTQRLEEMTQRMEALENRLRYR
notes: also called Matrilin2; human recombinant MATN2
binding result: binds
